Reference: patent publication US20040180417

T1: 20 aa synthetic peptide spanning the β-secretase cleavage site of βAPPSW
T1 chain: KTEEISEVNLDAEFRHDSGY

T2: PC cleavage site-spanning peptide of proBACE
T2 chain: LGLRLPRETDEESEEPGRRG


How the values were obtained:
[1] = target: T1, 20 aa synthetic peptide spanning the …
[2] = target: T2, PC cleavage site-spanning peptide of …
[3] = target: [proBACES-R45A]FG/V5
[4] = target: [proBACES]FG/V5, doubly tagged soluble form of mouse proBACE

| Protein | β-secretase activity of affinity-purified proBACE on the synthetic peptide substrate [1] | cleavage of the peptide spanning the N-terminal furin-consensus site, RP-HPLC and MALDI-TOF [2] | in vitro processing of the R45A mutant of proBACES, Western blot [3] | in vitro processing of proBACE into BACE, Western blot with FG or V5 antibodies [4] | cleavage of the peptide spanning the N-terminal furin-consensus site [2] |
| --- | --- | --- | --- | --- | --- |
| [proBACES]FG/V5, doubly tagged soluble form of mouse proBACE (protein) DYKDDDDKQGTHLGIRLPLRSGLAGPPLGLRLPRETDEESEEPGRRGSFVEMVDNLRGKSGQGYYVEMTRGQPLTKLNILVDTGSSNFAVGAAPHPFLHRYYQRQLSSTYRDLRKGVYVPYTQGKWEGELGTDLVSIPHGPNVTVRANIAAITESDKFFINGSNWEGILGLAYAEIARPDDSLEPFFDSLVKQTHIPNIFSLQLCGAGFPLNQTEALASVGGSMIIGGIDHSLYTGSLWYTPIRREWYYEVIIVRVEINGQDLKMDCKEYNYDKSIVDSGTTNLRLPKKVFEAAVKSIKAASSTEKFPDGFWLGEQLVCWQAGTTPWNIFPVISLYLMGEVTNQSFRITILPQQYLRPVEDVATSQDDCYKFAVSQSSTGTVMGAVIMEGFYVVFDRARKRIGFAVSACHVHDEFRTAAVEGPFVTADMEDCGYNIPQTDESTGKPIPNPLLGLDST | the resulting material had no detectable activity unless first pre-incubated with furin |  |  |  |  |
| rat PC7 (protein) SIHFNDPKYPQQWHLNNRRSPGRDINVTGVWERNVTGRGVTVVVVDDGVEHTVQDIAPNYSPEGSYDLNSNDPDPMPHPDEENGNHHGTRCAGEIAAVPNNSFCAVGVAYGSRIAGIRVLDGPLTDSMEAVAFNKHYQINDIYSCSWGPDDDGKTVDGPHQLGKAALQHGVMAGRQGFGSIFVVASGNGGQHNDNCNYDGYANSIYTVTIGAVDEEGRMPFYAEECASMLAVTFSGGDKMLRSIVTTDWDLQKGTGCTEGHTGTSAAAPLAAGMIALMLQVRPCLTWRDVQHIIVFTATQYEDHRADWLTNEAGFSHSHQHGFGLLNAWRLVNAAKIWTSVPYLASYVSPMLKENKAVPRSPHSLEVLWNVSRTDLEMSGLKTLEHVAVTVSITHPRRGSLELKLFCPSGMMSLIGAPRSMDSDPNGFNDWTFSTVRCWGERARGVYRLVIRDVGDEPLQVGILQQWQLTLYGSTWSPVDIKDRQSLLESAMSGKYLHDDFTLPCPPGLKIPEEDGYSITPNTLKT |  | PC7 could barely cleave this sequence, even when a 10-fold excess (as assessed by pERTKR-MCA hydrolysis) of activity was employed | none of the PCs tested could cleave this form | PC7 is barely, if at all, able to perform this reaction |  |
| PACE4 (protein) QVRSDPQALYFNDPIWSNMWYLHCGDKNSRCRSEMNVQAAWKRGYTGKNVVVTILDDGIERNHPDLAPNYDSYASYDVNGNDYDPSPRYDASNENKHGTRCAGEVAASANNSYCIVGIAYNAKIGGIRMLDGDVTDVVEAKSLGIRPNYIDIYSASWGPDDDGKTVDGPGRLAKQAFEYGIKKGRQGLGSIFVWASGNGGREGDYCSCDGYTNSIYTISVSSATENGYKPWYLEECASTLATTYSSGAFYERKIVTTDLRQRCTDGHTGTSVSAPMVAGIIALALEANSQLTWRDVQHLLVKTSRPAHLKASDWKVNGAGHKVSHFYGFGLVDAEALVVEAKKWTAVPSQHMCVAASDKRPRSIPLVQVLRTTALTSACAEHSDQRVVYLEHVVVRTSISHPRRGDLQIYLVSPSGTKSQLLAKRLLDLSNEGFTNWEFMTVHCWGEKAEGQWTLEIQDLPSQVRNPEKQGKLKEWSLILYGTAEHPYHTFSAHQSRSRMLELSAPELEPPKAALSPSQVEVPEDEEDYTAQSTPGSANILQTSVCHPECGDKGCDGPNADQCLNCVHFSLGSVKTSRKCVSVCPLGYFGDTAARRCRRCHKGCETCSSRAATQCLSCRRGFYHHQEMNTCVTLCPAGFYADESQKNCLKCHPSCKKCVDEPEKCTVCKEGFSLARGSCIPDCEPGTYFDSELIRCGECHHTCGTCVGPGREECIHCAKNFHFHDWKCVPACGEGFYPEEMPGLPHKVCRRCDENCLSCAGSSRNCSRCKTGFTQLGTSCITNHTCSNADETFCEMVKSNRLCERKLFIQFCCRTCLLAG |  |  | none of the PCs tested could cleave this form | which was superior to the abilities of PC5 and PACE4 to carry out this cleavage |  |
| [BACES]V5, soluble mouse BACE ending at Thr454 followed by a V5 epitope (protein) THLGIRLPLRSGLAGPPLGLRLPRETDEESEEPGRRGSFVEMVDNLRGKSGQGYYVEMTRGQPLTKLNILVDTGSSNFAVGAAPHPFLHRYYQRQLSSTYRDLRKGVYVPYTQGKWEGELGTDLVSIPHGPNVTVRANIAAITESDKFFINGSNWEGILGLAYAEIARPDDSLEPFFDSLVKQTHIPNIFSLQLCGAGFPLNQTEALASVGGSMIIGGIDHSLYTGSLWYTPIRREWYYEVIIVRVEINGQDLKMDCKEYNYDKSIVDSGTTNLRLPKKVFEAAVKSIKAASSTEKFPDGFWLGEQLVCWQAGTTPWNIFPVISLYLMGEVTNQSFRITILPQQYLRPVEDVATSQDDCYKFAVSQSSTGTVMGAVIMEGFYVVFDRARKRIGFAVSACHVHDEFRTAAVEGPFVTADMEDCGYNIPQTDESTGKPIPNPLLGLDST |  |  |  |  | no detectable cleavage of this peptide was observed by either crude or partially purified soluble BACE [BACES]V5 (not shown) |
| mouse PC5-A (protein) DYDLSHAQSTYFNDPKWPSMWYMHCSDNTHPCQSDMNIEGAWKRGYTGKNIVVTILDDGIERTHPDLMQNYDALASCDVNGNDLDPMPRYDASNENKHGTRCAGEVAATANNSHCTVGIAFNAKIGGVRMLDGDVTDMVEAKSVSYNPQHVHIYSASWGPDDDGKTVDGPAPLTRQAFENGVRMGRRGLGSVFVWASGNGGRSKDHCSCDGYTNSIYTISISSTAESGKKPWYLEECSSTLATTYSSGESYDKKIITTDLRQRCTDNHTGTSASAPMAAGIIALALEANPFLTWRDVQHVIVRTSRAGHLNANDWKTNAAGFKVSHLYGFGLMDAEAMVMEAEKWTTVPQQHVCVESTDRQIKTIRPNSAVRSIYKASGCSDNPNHHVNYLEHVVVRITITHPRRGDLAIYLTSPSGTRSQLLANRLFDHSMEGFKNWEFMTIHCWGERAAGDWVLEVYDTPSQLRNFKTPGKLKEWSLVLYGTSVQPYSPTNEFPKVERFRYSRVEDPTDDYGAEDYAGPCDPECSEVGCDGPGPDHCSDCLHYYYKLKNNTRICVSSCPPGHYHADKKRCRKCAPNCESCFGSHGNQCLSCKYGYFLNEETSSCVTQCPDGSYEDIKKNVCGKCSENCKACIGFHNCTECKGGLSLQGSRCSVTCEDGQFFNGHDCQPCHRFCATCSGAGADGCINCTEGYVMEEGRCVQSCSVSYYLDHSSEGGYKSCKRCDNSCLTCNGPGFKNCSSCPSGYLLDLGTCQMGAICKDATEESWAEGGFCMLVKKNNLCQRKVLQQLCCKTCTFQG |  | The best processing rates were observed with furin and PC5 (not shown) | none of the PCs tested could cleave this form | which was superior to the abilities of PC5 and PACE4 to carry out this cleavage |  |
